Patent US20100260668A1 (published 2010)
Several values for one entry are separate records, joined by “and”; a condition that tells them apart may be missing. Equal entries are not always repeated.

B1: AB015 (anti-DLL-4 (seq. 1) parent antibody) (antibody, human IgG1, V domains shown)
VH: EVQLVESGGGLVQPGGSLRLSCAASGFTFTDNWISWVRQAPGKGLEWVGYISPNSGFTYYADSVKGRFTISADTSKNTAYLQMNSLRAEDTAVYYCARDNFGGYFDYWGQGTLVTVSS
VL: DIQMTQSPSSLSASVGDRVTITCRASQDVSTAVAWYQQKPGKAPKLLIYSASFLYSGVPSRFSGSGSGTDFTLTISSLQPEDFATTYYCQQSYTGTVTFGQGTKVEIKR
notes: also called AB015VH; AB015VL
B2: AB069 (anti-DLL4 (seq. 2) parent antibody) (antibody, human IgG1, V domains shown)
VH: QVQLVQSGAEVKKPGASVKISCKASGYSFTAYYIHWVKQAPGQGLEWIGYISSYNGATNYNQKFKGRVTFTTDTSTSTAYMELRSLRSDDTAVYYCARDYDYDVGMDYWGQGTLVTVSS
VL: DIVMTQSPDSLAVSLGERATISCRASESVDNYGISFMKWFQQKPGQPPKLLIYAASNQGSGVPDRFSGSGSGTDFTLTISSLQAEDVAVYYCQQSKEVPWTFGGGTKVEIKR
notes: also called AB069VH; AB069VL
B3: AB073 (anti-DLL4 (seq. 4) parent antibody) (antibody, human IgG1, V domains shown)
VH: EVQLQQSGPELEKPGASVKISCKASGYSFTGYNMNWVKQSNGKSLEWIGNIDPYFGGTNYNQKFKGKATLTVDKSSSTAYMQLKSLTSEDSAVYYCARNYDYDGGCFDYWGQGTTLTVSS
VL: QAVVTQESALTTSPGETVTLTCRSSTGAVTTSNYANWVQEKPDHLFTGLIGGTNNRAPGVPARFSGSLIGDKAALTITGAQTEDEAIYFCALWYSNHWVFGGGTKLTVLG
notes: also called AB073VH; AB073VL
B4: AB072 (anti-DLL4 (seq. 3) parent antibody) (antibody, human IgG1, V domains shown)
VH: EVQLQQSGPELVKPGASVKMSCKASGYTFTSYVINWVKQKPGQGLEWIGLINPYNDGTKYNEKFKVKATLTSDKSSSTAYMELSSLTSEDSAVYYCASYYYGSRYYFDYWGQGTTLTVSS
VL: DIQMTQSSSYLSVSLGGRVTITCKASDHINNWLAWYQQKPGNAPRLLISGATSLETGVPSRFSGSGSGKDYTLSITSLQTEDVATYYCQQYWSIPLTFGAGTKLELKR
notes: also called AB072VH; AB072VL
B5: DVD466 (VEGF/DLL4 DVD-Ig) (bispecific antibody, human IgG1)
VH: EVQLVESGGGLVQPGGSLRLSCAASGFTISDYWIHWVRQAPGKGLEWVAGITPAGGYTYYADSVKGRFTISADTSKNTAYLQMNSLRAEDTAVYYCARFVFFLPYAMDYWGQGTLVTVSSASTKGPEVQLVESGGGLVQPGGSLRLSCAASGFTFTDNWISWVRQAPGKGLEWVGYISPNSGFTYYADSVKGRFTISADTSKNTAYLQMNSLRAEDTAVYYCARDNFGGYFDYWGQGTLVTVSS
VL: DIQMTQSPSSLSASVGDRVTITCRASQDVSTAVAWYQQKPGKAPKLLIYSASFLYSGVPSRFSGSGSGTDFTLTISSLQPEDFATYYCQQSYTTPPTFGQGTKVEIKRTVAAPDIQMTQSPSSLSASVGDRVTITCRASQDVSTAVAWYQQKPGKAPKLLIYSASFLYSGVPSRFSGSGSGTDFTLTISSLQPEDFATTYYCQQSYTGTVTFGQGTKVEIKR
notes: HC linker short, LC linker short; also called DVD466H; DVD466L
B6: DVD444 (VEGF/DLL4 DVD-Ig) (bispecific antibody, human IgG1)
VH: EVQLVESGGGLVQPGGSLRLSCAASGFTISDYWIHWVRQAPGKGLEWVAGITPAGGYTYYADSVKGRFTISADTSKNTAYLQMNSLRAEDTAVYYCARFVFFLPYAMDYWGQGTLVTVSSASTKGPQVQLVQSGAEVKKPGASVKISCKASGYSFTAYYIHWVKQAPGQGLEWIGYISSYNGATNYNQKFKGRVTFTTDTSTSTAYMELRSLRSDDTAVYYCARDYDYDVGMDYWGQGTLVTVSS
VL: DIQMTQSPSSLSASVGDRVTITCRASQDVSTAVAWYQQKPGKAPKLLIYSASFLYSGVPSRFSGSGSGTDFTLTISSLQPEDFATYYCQQSYTTPPTFGQGTKVEIKRTVAAPDIVMTQSPDSLAVSLGERATISCRASESVDNYGISFMKWFQQKPGQPPKLLIYAASNQGSGVPDRFSGSGSGTDFTLTISSLQAEDVAVYYCQQSKEVPWTFGGGTKVEIKR
notes: HC linker short, LC linker short; also called DVD444H; DVD444L
B7: DVD465 (DLL4/VEGF DVD-Ig) (bispecific antibody, human IgG1)
VH: EVQLVESGGGLVQPGGSLRLSCAASGFTFTDNWISWVRQAPGKGLEWVGYISPNSGFTYYADSVKGRFTISADTSKNTAYLQMNSLRAEDTAVYYCARDNFGGYFDYWGQGTLVTVSSASTKGPEVQLVESGGGLVQPGGSLRLSCAASGFTISDYWIHWVRQAPGKGLEWVAGITPAGGYTYYADSVKGRFTISADTSKNTAYLQMNSLRAEDTAVYYCARFVFFLPYAMDYWGQGTLVTVSS
VL: DIQMTQSPSSLSASVGDRVTITCRASQDVSTAVAWYQQKPGKAPKLLIYSASFLYSGVPSRFSGSGSGTDFTLTISSLQPEDFATTYYCQQSYTGTVTFGQGTKVEIKRTVAAPDIQMTQSPSSLSASVGDRVTITCRASQDVSTAVAWYQQKPGKAPKLLIYSASFLYSGVPSRFSGSGSGTDFTLTISSLQPEDFATYYCQQSYTTPPTFGQGTKVEIKR
notes: HC linker short, LC linker short; also called DVD465H; DVD465L
B8: DVD443 (DLL4/VEGF DVD-Ig) (bispecific antibody, human IgG1)
VH: QVQLVQSGAEVKKPGASVKISCKASGYSFTAYYIHWVKQAPGQGLEWIGYISSYNGATNYNQKFKGRVTFTTDTSTSTAYMELRSLRSDDTAVYYCARDYDYDVGMDYWGQGTLVTVSSASTKGPEVQLVESGGGLVQPGGSLRLSCAASGFTISDYWIHWVRQAPGKGLEWVAGITPAGGYTYYADSVKGRFTISADTSKNTAYLQMNSLRAEDTAVYYCARFVFFLPYAMDYWGQGTLVTVSS
VL: DIVMTQSPDSLAVSLGERATISCRASESVDNYGISFMKWFQQKPGQPPKLLIYAASNQGSGVPDRFSGSGSGTDFTLTISSLQAEDVAVYYCQQSKEVPWTFGGGTKVEIKRTVAAPDIQMTQSPSSLSASVGDRVTITCRASQDVSTAVAWYQQKPGKAPKLLIYSASFLYSGVPSRFSGSGSGTDFTLTISSLQPEDFATYYCQQSYTTPPTFGQGTKVEIKR
notes: HC linker short, LC linker short; also called DVD443H; DVD443L
B9: DVD513 (DLL4/VEGF DVD-Ig) (bispecific antibody, human IgG1)
VH: EVQLQQSGPELEKPGASVKISCKASGYSFTGYNMNWVKQSNGKSLEWIGNIDPYFGGTNYNQKFKGKATLTVDKSSSTAYMQLKSLTSEDSAVYYCARNYDYDGGCFDYWGQGTTLTVSSASTKGPEVQLVESGGGLVQPGGSLRLSCAASGFTISDYWIHWVRQAPGKGLEWVAGITPAGGYTYYADSVKGRFTISADTSKNTAYLQMNSLRAEDTAVYYCARFVFFLPYAMDYWGQGTLVTVSS
VL: QAVVTQESALTTSPGETVTLTCRSSTGAVTTSNYANWVQEKPDHLFTGLIGGTNNRAPGVPARFSGSLIGDKAALTITGAQTEDEAIYFCALWYSNHWVFGGGTKLTVLGQPKAAPDIQMTQSPSSLSASVGDRVTITCRASQDVSTAVAWYQQKPGKAPKLLIYSASFLYSGVPSRFSGSGSGTDFTLTISSLQPEDFATYYCQQSYTTPPTFGQGTKVEIKR
notes: HC linker short, LC linker short; also called DVD513H; DVD513L
B10: DVD489 (DLL4/VEGF DVD-Ig) (bispecific antibody, human IgG1)
VH: EVQLQQSGPELVKPGASVKMSCKASGYTFTSYVINWVKQKPGQGLEWIGLINPYNDGTKYNEKFKVKATLTSDKSSSTAYMELSSLTSEDSAVYYCASYYYGSRYYFDYWGQGTTLTVSSASTKGPEVQLVESGGGLVQPGGSLRLSCAASGFTISDYWIHWVRQAPGKGLEWVAGITPAGGYTYYADSVKGRFTISADTSKNTAYLQMNSLRAEDTAVYYCARFVFFLPYAMDYWGQGTLVTVSS
VL: DIQMTQSSSYLSVSLGGRVTITCKASDHINNWLAWYQQKPGNAPRLLISGATSLETGVPSRFSGSGSGKDYTLSITSLQTEDVATYYCQQYWSIPLTFGAGTKLELKRTVAAPDIQMTQSPSSLSASVGDRVTITCRASQDVSTAVAWYQQKPGKAPKLLIYSASFLYSGVPSRFSGSGSGTDFTLTISSLQPEDFATYYCQQSYTTPPTFGQGTKVEIKR
notes: HC linker short, LC linker short; also called DVD489H; DVD489L
B11: DVD485 (bispecific antibody, human IgG1, kappa)
heavy: not shown
light: DIQMTQSPSSLSASVGDRVTITCRASQDVSTAVAWYQQKPGKAPKLLIYSASFLYSGVPSRFSGSGSGTDFTLTISSLQPEDFATTYYCQQSYTGTVTFGQGTKVEIKRTVAAPSVFIFPPDIQMTQSPSSLSASVGDRVTITCRASQVIRRSLAWYQQKPGKAPKLLIYAASNLASGVPSRFSGSGSGTDFTLTISSLQPEDFATYYCQQSNTSPLTFGQGTKVEIKRTVAAPSVFIFPPSDEQLKSGTASVVCLLNNFYPREAKVQWKVDNALQSGNSQESVTEQDSKDSTYSLSSTLTLSKADYEKHKVYACEVTHQGLSSPVTKSFNRGEC
notes: DVD-Ig; outer AB015 (DLL4), inner AB071 (VEGF); HC short, LC long linker; also called DVD485H; DVD485L
B12: DVD463 (bispecific antibody, human IgG1, kappa)
heavy: not shown
light: DIVMTQSPDSLAVSLGERATISCRASESVDNYGISFMKWFQQKPGQPPKLLIYAASNQGSGVPDRFSGSGSGTDFTLTISSLQAEDVAVYYCQQSKEVPWTFGGGTKVEIKRTVAAPSVFIFPPDIQMTQSPSSLSASVGDRVTITCRASQVIRRSLAWYQQKPGKAPKLLIYAASNLASGVPSRFSGSGSGTDFTLTISSLQPEDFATYYCQQSNTSPLTFGQGTKVEIKRTVAAPSVFIFPPSDEQLKSGTASVVCLLNNFYPREAKVQWKVDNALQSGNSQESVTEQDSKDSTYSLSSTLTLSKADYEKHKVYACEVTHQGLSSPVTKSFNRGEC
notes: DVD-Ig; outer AB069 (DLL4), inner AB071 (VEGF); HC short, LC long linker; also called DVD463H; DVD463L
B13: DVD533 (bispecific antibody, human IgG1, kappa, lambda, L234A L235A)
heavy: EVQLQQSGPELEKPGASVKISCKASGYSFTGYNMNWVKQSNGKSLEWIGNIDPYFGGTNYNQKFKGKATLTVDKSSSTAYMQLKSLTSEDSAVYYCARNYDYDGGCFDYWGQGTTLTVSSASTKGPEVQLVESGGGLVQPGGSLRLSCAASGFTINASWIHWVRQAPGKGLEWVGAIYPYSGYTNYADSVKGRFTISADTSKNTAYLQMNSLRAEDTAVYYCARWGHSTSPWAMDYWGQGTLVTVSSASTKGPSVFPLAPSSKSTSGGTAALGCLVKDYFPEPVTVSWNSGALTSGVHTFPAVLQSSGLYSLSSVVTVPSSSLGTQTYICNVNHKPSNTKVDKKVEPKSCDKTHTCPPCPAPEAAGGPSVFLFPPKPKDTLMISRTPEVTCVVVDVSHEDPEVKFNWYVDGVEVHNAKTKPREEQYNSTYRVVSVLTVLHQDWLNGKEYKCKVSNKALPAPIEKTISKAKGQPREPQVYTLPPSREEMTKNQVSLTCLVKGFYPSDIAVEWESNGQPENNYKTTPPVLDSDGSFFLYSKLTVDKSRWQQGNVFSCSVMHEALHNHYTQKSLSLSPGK
light: QAVVTQESALTTSPGETVTLTCRSSTGAVTTSNYANWVQEKPDHLFTGLIGGTNNRAPGVPARFSGSLIGDKAALTITGAQTEDEAIYFCALWYSNHWVFGGGTKLTVLGQPKAAPSVTLFPPDIQMTQSPSSLSASVGDRVTITCRASQVIRRSLAWYQQKPGKAPKLLIYAASNLASGVPSRFSGSGSGTDFTLTISSLQPEDFATYYCQQSNTSPLTFGQGTKVEIKRTVAAPSVFIFPPSDEQLKSGTASVVCLLNNFYPREAKVQWKVDNALQSGNSQESVTEQDSKDSTYSLSSTLTLSKADYEKHKVYACEVTHQGLSSPVTKSFNRGEC
notes: DVD-Ig; outer AB073 (DLL4), inner AB071 (VEGF); HC short, LC long linker; also called DVD533H; DVD533L
B14: DVD509 (bispecific antibody, human IgG1, kappa)
heavy: not shown
light: DIQMTQSSSYLSVSLGGRVTITCKASDHINNWLAWYQQKPGNAPRLLISGATSLETGVPSRFSGSGSGKDYTLSITSLQTEDVATYYCQQYWSIPLTFGAGTKLELKRTVAAPSVFIFPPDIQMTQSPSSLSASVGDRVTITCRASQVIRRSLAWYQQKPGKAPKLLIYAASNLASGVPSRFSGSGSGTDFTLTISSLQPEDFATYYCQQSNTSPLTFGQGTKVEIKRTVAAPSVFIFPPSDEQLKSGTASVVCLLNNFYPREAKVQWKVDNALQSGNSQESVTEQDSKDSTYSLSSTLTLSKADYEKHKVYACEVTHQGLSSPVTKSFNRGEC
notes: DVD-Ig; outer AB072 (DLL4), inner AB071 (VEGF); HC short, LC long linker; also called DVD509H; DVD509L

molecular target: T1, DLL4 (DLL4 ECD/His tag, R&D Systems 1506-D4-050) (UniProt Q9NR61 27-529); assay: Direct bind ELISA on DLL4; reference antibody
T1 construct: extracellular domain; not shown: His tag

With B1 the EC50 was 0.6 nM and 0.58 nM.
For B2, the EC50 was 0.23 nM and 0.24 nM.
With B3 the EC50 was 0.22 nM and 0.21 nM.
With B4 the EC50 was 63.4 nM and 63.2 nM.

molecular target: T1, DLL4 (DLL4 ECD/His tag, R&D Systems …); assay: Direct bind ELISA on DLL4; DLL4 domain C-term., HC short, LC short

First: B5
Second: B6
The EC50 of the first is 1.5-fold lower: 19.8 nM for the first, 30.5 nM for the second.

molecular target: T1, DLL4 (DLL4 ECD/His tag, R&D Systems …); assay: Direct bind ELISA on DLL4; DLL4 domain N-term., HC short, LC short

Going from B7 to B8, the EC50 falls from 0.57 nM to 0.2 nM (2.8-fold). The second is the more potent here.

B9 and B10 are within 1.5-fold of each other in EC50: 0.66 nM for the first, 0.62 nM for the second.

molecular target: T2, DLL4 ECD/His tag (R&D 1506-D4-050) (UniProt Q9NR61 27-529); assay: direct bind ELISA, DLL4 on plate; DLL4 VD N-term.; HC Short, LC Long
T2 construct: extracellular domain; Bought antigen coated on the ELISA plate; not shown: His tag

First: B11
Second: B12
The EC50 of the first is 2.8-fold higher: 1.41 nM for the first, 0.5 nM for the second.

B13 and B14 are within 1.5-fold of each other in EC50: 0.25 nM for the first, 0.21 nM for the second.
